Experiment [1] has as its target T1, Mdm4-L98V (amino acids 1–108) (Homo sapiens, UniProt O15151, L98V).
T1 construct: Mdm4 and Mdm4-L98V (amino acids 1–108) were cloned with C-terminal 6xHIS tags; made in house; host or cells: Escherichia coli BL21(DE3)
T1 sequence (O15151 1-108 L98V): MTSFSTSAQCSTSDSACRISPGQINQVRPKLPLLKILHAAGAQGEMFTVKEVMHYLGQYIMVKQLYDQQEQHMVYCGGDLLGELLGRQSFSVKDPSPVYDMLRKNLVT
Briefly: Competitive fluorescence anisotropy, Mdm4-L98V. The experiment is classed as binding. The settings on record: from Table 2. As for the experimental part:
(§1) Mdm4 and Mdm4-L98V (amino acids 1–108) were cloned with C-terminal 6xHIS tags. The constructs were then transformed into Escherichia coli BL21(DE3) (Invitrogen) competent cells. Cells were grown in LB medium at 37°C and induced at OD600 nm of 0.6 at 25°C with 0.25 mM IPTG and at 16°C with 1 mM IPTG for Mdm4-WT and Mdm4-L98V respectively. After overnight induction, the cells were harvested by centrifugation, resuspended in His-binding buffer (50 mM Bis-Tris pH 6.5, 1M NaCl, 20 mM imidazole, 0.5 mM DTT), and lysed by sonication. After centrifugation for 60 mins at 19,000 × g at 4°C, the cell lysate was then applied to a 1 mL HisTrap FF column (GE Healthcare) pre-equilibrated in His-binding buffer, washed and eluted off the column with His-elution buffer (50 mM Bis-Tris pH 6.5, 1M NaCl, 500 mM imidazole, 0.5 mM DTT) with a gradient elution of 35% elution buffer in 5 column volumes, followed by 35% to 100% elution buffer over 80 column volumes. Protein purity as assessed by SDS-PAGE was ~ 90%, and the fractions were pooled and buffer exchanged into 50 mM Bis-Tris pH 6.5, 350 mM NaCl, 1 mM DTT. The proteins were then concentrated using Amicon-Ultra (3 kDa MWCO) concentrator (Millipore).
(§2) Fluorescence anisotropy assays were performed as previously described. Titrations of purified Mdm2/Mdm4 proteins were incubated with 50 nM of carboxyfluorescein (FAM) labelled 12–1 peptide (FAM-[…]-NH2) to initially determine the dissociation constants for the peptide-protein interactions. Apparent Kds of peptides were next determined by competitive fluorescence anisotropy. Titrations of peptides were carried out at constant concentrations of Mdm2/Mdm2-M62A/Mdm4 (150 nM), Mdm4-L98V (250 nM) and labelled peptide (50 nM). Anisotropy measurements were carried out using the Envision Multilabel Reader (PerkinElmer). All experiments were carried out in PBS (2.7 mM KCl, 137 mM NaCl, 10 mM Na2HPO4 and 2 mM KH2PO4, pH 7.4), 4% DMSO and 0.1% Tween-20 buffer. All titrations were carried out in duplicate (3–6 repeats). Curve fitting was carried out using Prism (GraphPad).

For experiment [2], the target named is T2, Mdm4 (amino acids 1–108) (Homo sapiens, UniProt O15151).
T2 construct: Mdm4 and Mdm4-L98V (amino acids 1–108) were cloned with C-terminal 6xHIS tags; made in house; host or cells: Escherichia coli BL21(DE3)
T2 sequence (O15151 1-108): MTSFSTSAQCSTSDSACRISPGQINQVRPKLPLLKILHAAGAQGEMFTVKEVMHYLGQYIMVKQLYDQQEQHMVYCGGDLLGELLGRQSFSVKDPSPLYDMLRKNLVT
Briefly: Competitive fluorescence anisotropy, Mdm4. Format: binding. Conditions: from Table 2. How it is done:
as §1, §2

Experiment [3] deals with Mdm2 (amino acids 6–125) (Homo sapiens, UniProt Q00987). In words: Competitive fluorescence anisotropy, Mdm2. The experiment is classed as binding. Set-up: Mdm2 (amino acids 6–125) was cloned as a GST-fusion protein; GST (N, cleaved yes); made in house; host or cells: Escherichia coli BL21(DE3) pLysS. The settings on record: from Table 2. For orientation: Polarisation of emitted light reports the rotation of a fluorescent probe.

Experiment [4] addresses T3, Mdm4-L98V (amino acids 1–108) (UniProt O15151 1-108, L98V).
T3 construct: Mdm4 (also known as MdmX), amino acids 1-108, with L98V; also called L98V mutant; source: E. coli BL21(DE3), purified (HisTrap FF)
T3 sequence (looked up): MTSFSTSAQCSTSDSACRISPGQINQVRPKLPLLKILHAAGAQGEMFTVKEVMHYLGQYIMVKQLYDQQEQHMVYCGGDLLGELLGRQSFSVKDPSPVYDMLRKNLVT
Briefly: fluorescence polarisation; competitive fluorescence anisotropy, apparent Kd; peptides titrated at constant Mdm2/Mdm2-M62A/Mdm4 (150 nM) or Mdm4-L98V (250 nM) and FAM-labelled 12-1 peptide (50 nM); PBS pH 7.4, 4% DMSO, 0.1% Tween-20. The settings on record: both partners purified.

The target in experiment [5] is T4, Mdm4 (amino acids 1–108) (UniProt O15151 1-108).
T4 construct: Mdm4 (also known as MdmX), amino acids 1-108; also called Mdm4-WT; MdmX; source: E. coli BL21(DE3), purified (HisTrap FF)
T4 sequence (looked up): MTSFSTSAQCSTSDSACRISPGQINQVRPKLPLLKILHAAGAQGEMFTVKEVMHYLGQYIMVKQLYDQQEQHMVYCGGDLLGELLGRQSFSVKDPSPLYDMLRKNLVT
The description is as above. The settings on record: both partners purified.

Experiment [6] concerns the target T5, Mdm2 (amino acids 6–125) (UniProt Q00987 6-125).
T5 construct: Cloned in pGEX-6P-1; also called Mdm2 N-terminal domain; source: E. coli BL21(DE3) pLysS, purified (GSTrap, on-column PreScission cleavage, Resource S cation exchange)
The description is as above. The settings on record: both partners purified.

For experiment [7], the target named is T6, Mdm2-M62A (amino acids 6–125) (UniProt Q00987 6-125, M62A).
T6 construct: Cloned in pGEX-6P-1; source: E. coli BL21(DE3) pLysS, purified (GSTrap, on-column PreScission cleavage, Resource S cation exchange)
The description is as above. The settings on record: both partners purified.

In experiment [8] the target is T4, Mdm4 (amino acids 1–108). The description is as above. The settings on record: both partners purified. This is another data set of the same source.
Experiment [9] concerns the target T3, Mdm4-L98V (amino acids 1–108). The experiment is described as above. Conditions: both partners purified. The source holds these as a separate data set.

Bridge positions count the residues as written; N and C are the ends. Square brackets hold non-standard residues; d marks the D form. Trp(6-Cl) = N[C@@H](Cc1c[nH]c2cc(Cl)ccc12)C(=O)O; Trp(6-Me) = Cc1ccc2c(C[C@H](N)C(=O)O)c[nH]c2c1; S8 = C=CCCCCCC[C@](C)(N)C(=O)O; S5 = C=CCCC[C@](C)(N)C(=O)O; FAM = carboxyfluorescein

For `CC(=O)N[C@H](C(=O)N[C@@H](CO)C(=O)N[C@@H](Cc1ccccc1)C(=O)N[C@]1(C)CCCCCCC=CCCC[C@@](C)(C(N)=O)NC(=O)[C@H](CC(C)C)NC(=O)[C@H](CC(C)C)NC(=O)[C@H](C)NC(=O)[C@H](Cc2c[nH]c3ccccc23)NC(=O)[C@H](Cc2ccc(O)cc2)NC(=O)[C@H](CCC(=O)O)NC1=O)[C@@H](C)O` [PM2], the “Increase in binding affinity to Mdm4-L98V over binding to Mdm4” value in [1] is recorded as ~ 1.4 fold.

For the molecule `CC(=O)N[C@H](C(=O)N[C@@H](CO)C(=O)N[C@@H](Cc1ccccc1)C(=O)N[C@]1(C)CCCCCCC=CCCC[C@@](C)(C(=O)N[C@@H](CO)C(=O)N[C@@H](C)C(=O)N[C@@H](C)C(N)=O)NC(=O)[C@H](CC(C)C)NC(=O)[C@H](CC(C)C)NC(=O)[C@H](C)NC(=O)[C@H](Cc2c[nH]c3cc(Cl)ccc23)NC(=O)[C@H](Cc2ccc(O)cc2)NC(=O)[C@H](CCC(=O)O)NC1=O)[C@@H](C)O` [VIP160], the “Improved binding to Mdm4 versus M011” value on Mdm4 (amino acids 1–108) [2] was ~ 1.7 fold. Also, the “Increase in binding affinity to Mdm4-L98V over binding to Mdm4” value in experiment [1] is ~ 2.5 fold. For the same molecule, the “Change in affinity for Mdm2 versus M011” value at Mdm2 (amino acids 6–125) [3] is recorded as “no change in affinity for Mdm2”.

Take `C=CCCCCCC[C@@](C)(NC(=O)[C@H](Cc1ccccc1)NC(=O)[C@H](CO)NC(=O)[C@@H](NC(C)=O)[C@@H](C)O)C(=O)N[C@@H](CCC(=O)O)C(=O)N[C@@H](Cc1ccc(O)cc1)C(=O)N[C@@H](Cc1c[nH]c2cc(Cl)ccc12)C(=O)N[C@@H](C)C(=O)N[C@@H](CC(C)C)C(=O)N[C@@H](CC(C)C)C(=O)N[C@@](C)(CCCC=C)C(N)=O` [M011-L]: the “Reduced binding to Mdm4 of pre-stapled peptide compared to M011” value on Mdm4 (amino acids 1–108) [2] is on record as ~ 4 fold. In addition, the “Reduced binding to Mdm2 of pre-stapled peptide compared to M011” value on Mdm2 (amino acids 6–125) [3] was ~ 20 fold.

B1: M012 stapled peptide (peptide)
chain: Ac-TSF[S5]EY[Trp(6-Me)]ALL[S8]-NH2
modifications: staple 4-11; also: Trp(6-Me) D/L mixture, not separated
As to B1, the Kd in experiment [4] is 385 nM.

B2: M012-L, linear precursor of M012 (peptide)
chain: Ac-TSF[S5]EY[Trp(6-Me)]ALL[S8]-NH2
modifications: bridges not given here; also: Trp(6-Me) not enantiomerically pure
As for B2, the results for the Kd (with Mdm4 (amino acids 1–108) [5]; in [4]) were 411 nM and 165 nM, respectively.

B3: M011 stapled peptide (peptide)
chain: TSFXEYWALLL
modifications: not fully specified; N-terminus acetylated; C-terminus amidated; L-6-chlorotryptophan at W23 (p53 numbering); (S)-2-(4′pentenyl) alanine at position 4 and (S)-2-(7′-octenyl) alanine at position 11, fused via olefin metathesis (i, i+7 hydrocarbon linkage)
On to B3, for which the Kd with Mdm4 (amino acids 1–108) [5] amounted to 335 nM; in experiment [4] it was 72.3 nM.

B4: PM2 stapled peptide (peptide)
chain: TSFXEYWALLL
modifications: not fully specified; N-terminus acetylated; C-terminus amidated; (S)-2-(4′pentenyl) alanine at position 4 and (S)-2-(7′-octenyl) alanine at position 11, fused via olefin metathesis (i, i+7 hydrocarbon linkage)
For the molecule B4, the Kd amounted to 101 nM with Mdm4 (amino acids 1–108) [5] and 72.3 nM in [4].

B5: carboxyfluorescein (FAM) labelled 12–1 peptide (peptide)
peptide: {FAM}-RFMDYWEGL-NH2
notes: 12-1 peptide, tracer of the fluorescence anisotropy assays; also called labelled peptide; source: synthetic peptide
In the case of B5, the binding result (with Mdm2 (amino acids 6–125) [6]; in [7]; with Mdm4 (amino acids 1–108) [8]; in [9]) was “binds” throughout.

B6: M011-L, linear precursor of M011 (peptide)
chain: Ac-TSF[S5]EY[Trp(6-Cl)]ALL[S8]-NH2
modifications: bridges not given here
On to B6, for which the Kd stood at 1390 nM with Mdm4 (amino acids 1–108) [5] and 594 nM in experiment [4].

Values taken from article PMC5724825, “Structure-activity studies of Mdm2/Mdm4-binding stapled peptides comprising non-natural amino acids” (PLoS ONE, 2017).
